Where “and” joins values, the source holds several entries; their conditions need not be identical. Identical values can stand only once.
Assays:
[1] = molecular target: T1, Recombinant Human VEGFR2/KDR Protein, His tag (hVEGFR2-his) (human, UniProt P35968 20-764); assay: competition ELISA: hVEGFR2-his coated (1 ug/ml), antibody titrated, then 0.3 ug/ml hVEGF-A added and bound VEGF-A detected; blocked ligand hVEGF-A
T1 construct: Expressed in HEK293, bought from ACRO Biosystems; also called human VEGFR2-his; Human VEGFR2/KDR-His
Description: High-binding clear polystyrene 96 well plates were coated with 100 μl/well of 1 μg/ml hVEGFR2-his overnight at 4° C. After washing and blocking, serial diluted antibodies (from 10 μg/ml to 0.0006 μg/ml) were added and incubate for 1 hour at RT. 0.3 μg/ml hVEGF-A (Acrobiosystem, Cat #VE5-H4210) were added and incubated for 2 hour at RT. Then 100 μl/well of 0.25 μg/ml Biotinylated Rabbit Anti-human VEGF-A (Peprotech, Cat #400-P10Bt) was then added for detecting bound VEGF-A. Then 100 μl/well of a solution of HRP conjugated Neutravidin antibody (Pierce, Cat #31001) and TMB were added sequentially. Finally, reaction was terminated using 0.64M H₂SO₄ and plates were read at 450 nm.

[2] = molecular target: T1, Recombinant Human VEGFR2/KDR Protein, …; assay: ELISA, hVEGFR2-his coated
Description: Same protocol of Example 2 antibody screening by ELISA assay. Briefly, 0.5 μg/ml hVEGFR2-his was coated and serially diluted purified antibodies would bind to coated antigen. Using HRP conjugated goat anti-mouse Fc antibody could detect binding signals of each antibody.
The hybridoma antibodies have similar affinity to human.

[3] = molecular target: T1, Recombinant Human VEGFR2/KDR Protein, …; assay: competition ELISA on coated hVEGFR2-his: hybridoma antibody titrated against 100 ng/ml chimeric 002C, anti-human IgG Fc-HRP
[4] = molecular target: T1, Recombinant Human VEGFR2/KDR Protein, …; assay: SPR (Biacore), antibody captured by anti-Fc, antigen 2.5-80 nM
In short: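 Human or mouse Fc-captured antibody (200–300 RU) on anti-Fc CM5 surface; antigen injected at 2.5–80 nM in HBS-EP pH 7.4 with 180 s association. Reference-cell-subtracted sensorgrams; regeneration with glycine pH 1.5.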

[5] = molecular target: T1, Recombinant Human VEGFR2/KDR Protein, …; assay: SPR (Biacore), antibody captured by anti-Fc, antigen 2.5-80 nM; second entry for mAb054 10D11F4D1F6 (r13; r11 gives another run)
Description: A CM5 sensor chip was activated in each flow cell by 7-min injection (10 μl/min) of freshly prepared 1:1 50 mM N-hydroxysuccinimide (NHS): 200 mM 1-ethyl-3-(3-dimethylaminopropyl)-carbodiimide (EDC). Then anti-human Fc antibody (GE Healthcare) in a concentration of 10 μg/ml in 10 mM sodium acetate buffer PH 5.0 was injected onto the activated chip at 10 μl/min (HBS-EP running buffer: 10 mM HEPES, 150 mM NaCl, 3.4 mM EDTA, 0.005% surfactant P20, pH 7.4). The remaining active coupling sites were blocked by 7 min injection of 1M ethanolamine at 10 μl/min. The immobilization level of each flow cell is ˜9000RU. Antibodies were captured in FC2 by anti-human Fc IgG or anti-mouse Fc (GE Healthcare) to 200˜300RU. FC1 was used as the reference cell. Antigen was injected at varying concentrations (2.5 nM, 5 nM, 10 nM, 20 nM, 40 nM and 80 nM) after capture of antibody. The association time for antibody binding antigen is 180s. Surface Regeneration condition is 120s at 10 μl/min in Gly pH1.5. The signals with captured antibody subtracted from those without captured antibody were calculated with Biacore X100 evaluation software ver. 2.0 (Biacore).

[6] = molecular target: T2, human VEGFR2 on HUVEC cells (human, UniProt P35968 20-1356); assay: flow cytometry on HUVEC cells, percent shifted cells (Shift%), anti-mouse IgG-PE
T2 construct: also called hVEGFR2 on HUVEC
Description: Log phase HUVEC cells were collected, counted and resuspended in FACS buffer (5% BSA+PBS). 2×10∧5 cells were added to each tube and then washed once with PBS (1500 rpm, 5 mins, RT). Then […] serial diluted VEGFR2 antibodies purified from hybridoma supernatant in FACS buffer were added into corresponding tubes and were incubated at 4° C. for 1 hr. The cells were then washed twice with 1 ml PBS, followed by adding 100 μl/tube of 2nd antibody (1:400 anti-mIgG (H+L)-PE, Cell signaling #8887) in FACS buffer. The cells were incubated at 4° C. for 0.5 hr and then washed twice with PBS, followed by resuspending cells in 600 μl PBS for each sample. The cells were then transferred into FACS tube and the bindings of the antibodies to the cells were detected using flow cytometry (BD Accuri C6) (see FIG. 3).
The percentage of positive binding cells was calculated and fit by Graphpad Prism Software.

mouse VEGFR2 [7] = molecular target: T3, mouse VEGFR2 (mouse, UniProt P35918 20-762, limits assumed); assay: ELISA, mouse VEGFR2 coated (500 ng/mL), goat anti-human HRP
Description: (§1) ELISA binding assay was conducted to confirm its binding affinity. Briefly, ELISA plates were coated with 500 ng/mL mouse VEGFR2 in coating buffer (0.16% Na₂CO₃, 0.30% NaHCO₃) and incubated at 4° C. overnight. After twice washing, blocking buffer (1% BSA, 1% goat serum, 0.05% Tween20 in PBS) was added and plates were incubated at room temperature for 2 hours. After three times washing, serial diluted chimeric-DC101 was added in dilution buffer (1% BSA, 1% goat serum, 0.01% Tween20 in PBS) and plates were incubated at room temperature for 3 hours. After three times washing, goat anti-human HRP (1:5000 diluted) was added and plates were incubated at room temperature for 1 hour. Finally, after three times washing, TMB was added and 4 mins later 0.16 mol/L sulfuric acid was added to terminate the reaction. OD450 nm was read and recorded.

mouse VEGFR2 [8] = molecular target: T3, mouse VEGFR2; assay: competition ELISA: human VEGF165 coated (250 ng/mL), antibody titrated with 1000 ng/mL mouse VEGFR2, bound mouse VEGFR2 detected; blocked ligand human VEGF165
Description: ELISA blocking assay was conducted to confirm its VEGF blockade activity. Briefly, ELISA plates were coated with 250 ng/mL recombinant human VEGF165 in coating buffer and incubated at 4° C. overnight. After twice washing, blocking buffer was added and plates were incubated at room temperature for 2 hours. After three times washing, serial diluted chimeric-DC101 was added in dilution buffer and then 1000 ng/mL mouse VEGFR2 was added. Plates were incubated at room temperature for 3 hours. After three times washing, polyclonal anti-mouse VEGFR2 with mouse Fc (1: 1000) was added and plates were incubated at room temperature for 1 hour. After three times washing, goat anti-mouse HRP (1:5000 diluted) was added and plates were incubated at room temperature for 1 hour. Finally, after three times washing, TMB was added and 4 mins later 0.16 mol/L sulfuric acid was added to terminate the reaction. OD450 nm was read and recorded.

mouse VEGFR2 [9] = molecular target: T3, mouse VEGFR2; assay: ELISA, 500 ng/mL mouse VEGFR2 coated, three lots
Description: as §1

T3 sequence (P35918 20-762 limits assumed): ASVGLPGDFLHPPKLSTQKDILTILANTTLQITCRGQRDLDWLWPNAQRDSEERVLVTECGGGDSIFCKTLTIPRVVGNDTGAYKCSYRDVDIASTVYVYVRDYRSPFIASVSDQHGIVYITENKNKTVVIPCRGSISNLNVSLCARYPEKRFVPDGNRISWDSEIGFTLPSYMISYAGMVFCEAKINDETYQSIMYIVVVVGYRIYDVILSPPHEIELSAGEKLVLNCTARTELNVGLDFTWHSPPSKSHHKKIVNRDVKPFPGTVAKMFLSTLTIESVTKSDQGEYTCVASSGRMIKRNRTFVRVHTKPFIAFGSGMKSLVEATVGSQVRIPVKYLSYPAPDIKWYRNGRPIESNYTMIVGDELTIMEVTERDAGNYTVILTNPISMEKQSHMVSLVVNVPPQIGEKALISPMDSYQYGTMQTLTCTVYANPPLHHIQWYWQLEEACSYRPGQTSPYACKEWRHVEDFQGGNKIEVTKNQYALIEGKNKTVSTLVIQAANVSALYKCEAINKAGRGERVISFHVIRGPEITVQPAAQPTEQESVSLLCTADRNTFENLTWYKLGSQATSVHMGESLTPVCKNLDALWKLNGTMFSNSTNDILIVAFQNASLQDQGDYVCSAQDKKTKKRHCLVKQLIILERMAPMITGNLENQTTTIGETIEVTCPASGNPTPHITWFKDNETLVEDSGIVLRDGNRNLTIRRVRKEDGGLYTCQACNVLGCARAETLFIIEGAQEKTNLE
T1 sequence (P35968 other isoform, or with tags, fused parts or gaps): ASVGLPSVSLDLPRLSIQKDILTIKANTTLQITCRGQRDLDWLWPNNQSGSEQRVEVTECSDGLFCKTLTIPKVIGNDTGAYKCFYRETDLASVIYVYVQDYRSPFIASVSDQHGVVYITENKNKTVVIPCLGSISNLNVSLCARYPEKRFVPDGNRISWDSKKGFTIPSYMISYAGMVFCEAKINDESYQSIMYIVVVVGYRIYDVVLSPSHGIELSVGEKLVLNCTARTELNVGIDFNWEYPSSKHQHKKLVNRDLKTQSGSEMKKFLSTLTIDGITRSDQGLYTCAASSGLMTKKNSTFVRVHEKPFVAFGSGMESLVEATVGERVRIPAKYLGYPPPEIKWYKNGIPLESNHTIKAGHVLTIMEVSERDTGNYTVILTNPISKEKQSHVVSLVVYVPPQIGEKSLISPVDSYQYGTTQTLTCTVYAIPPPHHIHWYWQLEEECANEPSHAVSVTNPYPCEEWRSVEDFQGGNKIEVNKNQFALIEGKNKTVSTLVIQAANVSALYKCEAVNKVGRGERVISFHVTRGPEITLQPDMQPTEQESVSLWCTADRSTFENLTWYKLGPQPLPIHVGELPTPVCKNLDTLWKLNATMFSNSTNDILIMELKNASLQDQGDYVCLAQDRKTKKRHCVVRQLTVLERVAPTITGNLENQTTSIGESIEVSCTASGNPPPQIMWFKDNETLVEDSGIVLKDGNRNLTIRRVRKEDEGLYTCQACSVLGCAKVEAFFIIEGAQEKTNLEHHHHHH
T2 sequence (P35968 20-1356 V297I/Q472H limits assumed): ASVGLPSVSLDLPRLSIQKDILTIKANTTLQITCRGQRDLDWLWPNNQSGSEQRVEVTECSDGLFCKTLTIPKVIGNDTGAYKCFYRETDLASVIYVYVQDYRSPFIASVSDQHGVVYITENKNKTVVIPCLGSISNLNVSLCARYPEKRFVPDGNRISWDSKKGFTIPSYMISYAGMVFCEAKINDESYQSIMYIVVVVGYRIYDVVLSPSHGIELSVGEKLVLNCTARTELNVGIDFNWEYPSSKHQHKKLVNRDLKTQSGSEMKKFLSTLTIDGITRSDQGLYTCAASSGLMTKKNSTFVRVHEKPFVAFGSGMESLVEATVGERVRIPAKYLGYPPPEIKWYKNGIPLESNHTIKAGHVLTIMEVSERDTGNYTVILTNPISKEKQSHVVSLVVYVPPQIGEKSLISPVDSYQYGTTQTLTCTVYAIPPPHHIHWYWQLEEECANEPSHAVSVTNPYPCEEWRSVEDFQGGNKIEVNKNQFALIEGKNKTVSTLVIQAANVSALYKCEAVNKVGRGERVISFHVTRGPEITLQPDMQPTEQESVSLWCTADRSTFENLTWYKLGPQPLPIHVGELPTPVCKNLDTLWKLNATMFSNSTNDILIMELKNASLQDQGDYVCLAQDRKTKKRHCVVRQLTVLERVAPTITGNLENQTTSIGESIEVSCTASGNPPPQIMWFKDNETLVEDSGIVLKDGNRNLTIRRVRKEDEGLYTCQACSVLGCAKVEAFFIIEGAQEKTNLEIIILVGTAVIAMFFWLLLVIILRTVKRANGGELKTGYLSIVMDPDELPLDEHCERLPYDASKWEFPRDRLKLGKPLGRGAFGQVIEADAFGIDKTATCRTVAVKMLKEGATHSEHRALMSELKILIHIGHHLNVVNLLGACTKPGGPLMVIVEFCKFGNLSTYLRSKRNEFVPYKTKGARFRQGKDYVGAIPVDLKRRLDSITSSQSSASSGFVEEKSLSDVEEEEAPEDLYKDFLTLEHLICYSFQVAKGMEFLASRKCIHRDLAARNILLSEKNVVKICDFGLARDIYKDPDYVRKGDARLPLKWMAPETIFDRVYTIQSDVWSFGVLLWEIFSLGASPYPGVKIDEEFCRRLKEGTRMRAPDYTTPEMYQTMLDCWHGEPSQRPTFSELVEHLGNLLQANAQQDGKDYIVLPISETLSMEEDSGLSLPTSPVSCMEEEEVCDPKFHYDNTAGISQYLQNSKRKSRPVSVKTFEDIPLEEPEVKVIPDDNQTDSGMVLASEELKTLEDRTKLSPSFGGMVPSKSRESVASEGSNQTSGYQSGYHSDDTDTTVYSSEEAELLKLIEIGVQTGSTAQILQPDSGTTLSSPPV

| Binder | IC50 [1] | EC50 [2] | IC50 (read off the curve) [3] | koff [4] | kon [4] | koff [5] | EC50 [6] | EC50 (mouse VEGFR2 [7]) | IC50 (mouse VEGFR2 [8]) | EC50 (mouse VEGFR2 [9]) |
| --- | --- | --- | --- | --- | --- | --- | --- | --- | --- | --- |
| 054 (mouse hybridoma antibody) (antibody, V domains shown, Mouse antibody purified from hybridoma; also called mAb054; 10D11) VH: EVQLVESGGDLVKPGGSLKLSCAASGFTFSMYGMSWVRQTPDKRLEWVASISIGGSYTYYADSVEGRFIISRENAKNTLFLQMNSLKSEDTALYYCARELDGNYDYWGQGTTLTVSS VL: HIMITQDELSNPVTFGESVSISCRSSKSLLYKDGKTYLNWFLQRPGQSPQLLIYLMSTRASGVSDRFSGSGSGTDFTLEISRVKAEDVGIYYCQQLVEYPFTFGSGTKLEIK | 0.0433 µg/mL | 8.09 ng/mL | ~0.1 µg/mL | 9.12e-05 s⁻¹ | 91800 M⁻¹ s⁻¹ and 97000 M⁻¹ s⁻¹ | 1.22e-05 s⁻¹ | 0.0612 µg/mL | – | – | – |
| chimeric-DC101 (anti-mouse VEGFR2 antibody DC101 with human IgG1 Fc) (antibody, V domains shown) VH: EVQLVETGGGLVQPGNSLKLSCATSGFIFSTTWMNWIRQTPGKRLEWLAQIEDKSNNYFISYSESVKGRFTISRDDSKSSVYLQMNNLKEEDTAIYYCSWKYRSNYYFDYWGQGVMVTVSS VL: DIVLTQSPALAVSLEQRATISCKTSQNVDYYGISYLHWYQQKPGQQPKLLIYEGSNLASGIPARFSGSGSGTDFTLTIDPVEADDIVTYYCQQSKDYPYTFGAGTKLELKR | – | – | – | – | – | – | – | 0.0645 µg/mL and 0.0477 µg/mL and 0.0764 µg/mL | 0.301 µg/mL and 0.28 µg/mL and 0.265 µg/mL | ~0.06 µg/mL |

From US20240209099A1 (SUZHOU TRANSCENTA THERAPEUTICS, published 2024)
